Paper PMC4072508, “Genome-Wide Prediction and Validation of Peptides That Bind Human Prosurvival Bcl-2 Proteins” (PLoS Computational Biology, 2014)
Like-named read-outs stand apart in the source and are kept apart here.

Key:
Bcl-w = target: T1, Bcl-w (Homo sapiens, UniProt Q92843, Q133R); assay: Fluorescence polarization direct binding; conditions: FP direct binding; 10 nM FAM-labeled peptide, receptor titrated; 25°C, pH 7.8; fit of all replicate titrations; X+number in a cell = highest concentration (nM) measured with no binding detected, given here as >; SPNS1 fit to raw fluorescence; read-out: Best-fit KD, Bcl-w
T1 construct: myc-Bcl-w SPOT array & FP; made in house
T1 sequence (Q92843 with tags, fused parts or gaps Q133R): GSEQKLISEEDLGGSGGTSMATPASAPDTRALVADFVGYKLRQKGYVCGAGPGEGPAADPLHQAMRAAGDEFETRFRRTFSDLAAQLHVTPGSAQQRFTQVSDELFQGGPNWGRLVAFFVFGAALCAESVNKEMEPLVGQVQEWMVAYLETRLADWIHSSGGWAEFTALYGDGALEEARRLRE
Method: (§1) Peptides were purified by reverse-phase HPLC using a C18 column and a linear water/acetonitrile gradient. We re-analyzed the purified peptide by mass spectrometry if there was not a single well-defined peak in HPLC chromatogram.
(§2) Fluorescence polarization (FP) assays were done at 25°C in assay buffer (20 mM NaPO4, 50 mM NaCl, 1 mM EDTA, 0.001% Triton X (v/v), pH 7.8). […] For all FP experiments, the total well volume was 120 µl. […] Anisotropy was measured using a Spectramax M5 plate reader from Molecular Devices.
(§3) Direct binding curves were fit using Pylab/Scipy/Optimize to a single-site binding model utilized previously.
(§4) ^1Best-fit KD values determined by combining all replicate titration curves and fitting to a direct binding model (see Methods). […] Values with an X followed by a number indicate the highest concentration (the number, in nM) for which signal was measured yet no binding was detected.

Bcl-2 = target: T2, Bcl-2 (Homo sapiens, UniProt P10415, DEL53-91); assay: Fluorescence polarization direct binding; conditions: FP direct binding; 10 nM FAM-labeled peptide, receptor titrated; 25°C, pH 7.8; fit of all replicate titrations; X+number in a cell = highest concentration (nM) measured with no binding detected, given here as >; SPNS1 fit to raw fluorescence; read-out: Best-fit KD, Bcl-2
T2 construct: myc- Bcl-2 FP; made in house
Method: as §1, §2, §3, §4

Bfl-1 = target: T3, Bfl-1 (Homo sapiens, UniProt Q16548); assay: Fluorescence polarization direct binding; conditions: FP direct binding; 10 nM FAM-labeled peptide, receptor titrated; 25°C, pH 7.8; fit of all replicate titrations; X+number in a cell = highest concentration (nM) measured with no binding detected, given here as >; SPNS1 fit to raw fluorescence; read-out: Best-fit KD, Bfl-1
T3 construct: myc- Bfl-1 SPOT array & FP; made in house
T3 sequence (Q16548 with tags, fused parts or gaps): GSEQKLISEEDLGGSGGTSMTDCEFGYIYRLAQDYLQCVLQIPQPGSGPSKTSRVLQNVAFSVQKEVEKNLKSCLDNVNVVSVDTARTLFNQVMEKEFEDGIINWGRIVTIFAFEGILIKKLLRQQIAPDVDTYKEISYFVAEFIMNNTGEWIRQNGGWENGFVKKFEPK
Method: as §1, §2, §3, §4

Mcl-1 [1] = target: T4, Mcl-1 (Homo sapiens, UniProt Q07820); conditions: cited from earlier work
T4 construct: myc-Mcl-1 SPOT array & FP; made in house
From the text: Negative control mutatio ...

Bcl-xL = target: T5, Bcl-xL (Homo sapiens, UniProt Q07817); assay: LUMIER full-length protein interaction; assay type: binding; conditions: LUMIER results for Bcl-xL; for z-score 1.1: experiment 1, duplicate 1; for z-score 1.2: experiment 1, duplicate 2; for z-score 2.1: experiment 2, duplicate 1; for z-score 2.2: experiment 2, duplicate 2
T5 construct: myc-Bcl-xL SPOT array & FP; made in house
Method: (§5) The LUMIER assay was carried out as previously described with the following modifications. A stable cell line expressing receptor tagged on the N-terminus with Nanoluc luciferase was created (the prey). […] Each bait construct was transfected into the receptor-luciferase cells in a 96-well format and after 48 hours the cells were lysed and transferred to 384-well plates coated with anti-FLAG. After incubation and washing, luminescence was measured to quantify how much receptor-luciferase was captured by the bait protein. Anti-Flag ELISA signal was used to exclude bait proteins that were not expressed. The experiment was carried out two times, each in duplicate.

Mcl-1 [2] = target: T4, Mcl-1; assay: LUMIER full-length protein interaction; assay type: binding; conditions: LUMIER results for Mcl-1, Z-score relative to Gaussian fit of the data; for z-score 1.2: experiment 1, duplicate 2; for z-score 2.1: experiment 2, duplicate 1; for z-score 2.2: experiment 2, duplicate 2
Method: as §5

[3] = read-out: Binder class, Mcl-1, natural BH3 peptides, interactions taken from literature
[4] = read-out: KD, Mcl-1, previously reported
[5] = read-out: Binder class, Mcl-1, S1 Bim variants, specific binding measured using yeast display, ref Dutta et al. (2010)
[6] = read-out: Binder class, Mcl-1, S2 Bim variants, ref Dutta et al. (2013)
[7] = Z-score of the interaction relative to the Gaussian fit of the data
[8] = Z-score relative to Gaussian fit of the data

T5 sequence (Q07817 with tags, fused parts or gaps): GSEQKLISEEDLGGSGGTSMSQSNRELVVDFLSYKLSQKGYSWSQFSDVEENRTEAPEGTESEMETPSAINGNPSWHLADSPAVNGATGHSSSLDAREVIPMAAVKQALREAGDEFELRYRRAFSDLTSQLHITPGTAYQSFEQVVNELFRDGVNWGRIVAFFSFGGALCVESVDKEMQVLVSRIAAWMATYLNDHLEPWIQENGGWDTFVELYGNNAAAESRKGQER
T4 sequence (Q07820 with tags, fused parts or gaps): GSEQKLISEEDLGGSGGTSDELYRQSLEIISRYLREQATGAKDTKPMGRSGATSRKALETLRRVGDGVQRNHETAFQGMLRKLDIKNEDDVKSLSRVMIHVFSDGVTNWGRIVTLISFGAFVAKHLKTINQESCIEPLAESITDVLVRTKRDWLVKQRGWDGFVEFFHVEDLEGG
T2 sequence (P10415 with tags, fused parts or gaps DEL53-91): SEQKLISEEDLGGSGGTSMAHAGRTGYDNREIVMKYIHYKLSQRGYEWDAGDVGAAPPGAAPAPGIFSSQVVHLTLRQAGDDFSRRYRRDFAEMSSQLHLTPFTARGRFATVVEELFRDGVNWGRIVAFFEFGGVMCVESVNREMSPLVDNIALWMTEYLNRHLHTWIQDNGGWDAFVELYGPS

Compound | Kd (Mcl-1 [1]; [5]) [nM] | further results
CC[C@H](C)[C@H](NC(=O)[C@H](CCC(N)=O)NC(=O)[C@H](C)NC(=O)[C@H](CC(C)C)NC(=O)[C@H](Cc1ccc(O)cc1)NC(=O)[C@H](CCCNC(=N)N)NC(=O)[C@H](CO)NC(=O)[C@H](CCC(=O)O)NC(=O)[C@@H]1CCCN1C(=O)[C@@H](NC(=O)[C@@H](NC(=O)[C@H](CCC(=O)O)NC(=O)[C@@H](NC(=O)[C@@H](N)CCCCN)[C@@H](C)CC)[C@@H](C)O)[C@@H](C)O)C(=O)NCC(=O)N[C@@H](CC(=O)O)C(=O)N[C@@H](CO)C(=O)N[C@H](C(=O)N[C@@H](CO)C(=O)N[C@@H](CC(C)C)C(=O)N[C@H](C(=O)N[C@@H](CS)C(=O)N[C@@H](CO)C(=O)N[C@H](C(=O)N[C@H](C(=O)NCC(N)=O)[C@@H](C)O)[C@@H](C)O)[C@@H](C)O)C(C)C [VCAM1] | – | Kd (Bcl-w): > 4350 nM; Kd (Bcl-2): > 3050 nM; Kd (Bfl-1): > 3370 nM
AAQLTAARLKALGDELHQRTMWR [Hrk] | – | Kd (Mcl-1 [1]; [3]): > 10000 nM
AAQRYGRELRRMSDEFVDSFKKG (LWAAQRYGRELRRMSDEFVDSFKKGL) [Bad] | – | Kd (Mcl-1 [1]; [3]): < 1000 nM; Kd (Mcl-1 [1]; [4]): > 2500 nM
AEVQIARKLQCIADQFHRLHVQQ (HQAEVQIARKLQCIADQFHRLHVQQH) [Bmf] | – | Kd (Mcl-1 [1]; [3]): > 10000 nM
EGEKEVEALKKSADWVSDWSSRP (VVEGEKEVEALKKSADWVSDWSSRPE) [BNIP3L] | – | Kd (Mcl-1 [1]; [3]): > 10000 nM; Kd (Mcl-1 [1]; [4]): > 2500 nM
IIRNIARHLAQVGDSMDRSIPPG (EDIIRNIARHLAQVGDSMDRSIPPGL) [Bid] | – | Kd (Mcl-1 [1]; [3]): < 1000 nM
LEVECATQLRRFGDKLNFRQKLL (AELEVECATQLRRFGDKLNFRQKLLN) [Noxa] | – | Kd (Mcl-1 [1]; [3]): > 10000 nM
MTQEVGQLLQDMGDDVYQQYRSL (GVMTQEVGQLLQDMGDDVYQQYRSLT) [Mule] | – | Kd (Mcl-1 [1]; [3]): > 10000 nM
PEIWAAQEIRRIGDENNAYYARR | < 1000 | –
PEIWAAQEIRRIGDESNAYYARR | < 1000 | –
PEIWDAQELGRIGDEVNAYYARR | < 1000 | –
PEIWFAQEARRYGDEFNAYYARR | > 10000 | –
PEIWFAQEFSRIGDEVNAYYARR | < 1000 | –
PEIWFAQEIDRIGDEVNAYYARR | < 1000 | –
PEIWFAQEIERIGDEVNAYYARR | < 1000 | –
PEIWFAQEIRRDGDEFNAYYARR | > 10000 | –
PEIWFAQELKRFGDEANAYYARR | > 10000 | –
PEIWFAQELKRNGDEYNAYYARR | > 10000 | –
PEIWFAQELRRDGDEFNAYYARR | > 10000 | –

Compound | Kd (Mcl-1 [1]; [5]) [nM] | further results
PEIWFAQELRRDGDEYNAYYARR | > 10000 | –
PEIWFAQELSRNGDEFNAYYARR | > 10000 | –
PEIWFAQELSRYGEEYNAYYARR | > 10000 | –
PEIWFAQEVGRIGDEINAYYARR | < 1000 | –
PEIWFAQEVGRIGDEVNAYYARR | < 1000 | –
PEIWFAQEVNRIGDEVNAYYARR | > 10000 | –
PEIWIAQEFQRAGDEYNAYYARR | > 10000 | –
PEIWIAQEFQRNGDEYNAYYARR | > 10000 | –
PEIWIAQEIDRIGDEFNAYYARR | < 1000 | –
PEIWIAQEIDRIGDETNAYYARR | < 1000 | –
PEIWIAQEIDRIGDEVNAYYARR | < 1000 | –
PEIWIAQEIDRIGNEINAYYARR | < 1000 | –
PEIWIAQEIGRIGDETNAYYARR | < 1000 | –
PEIWIAQEIGRIGNEVNAYYARR | < 1000 | –
PEIWIAQEIGRTGDEVNAYYARR | < 1000 | –
PEIWIAQEINRVGDEINAYYARR | < 1000 | –
PEIWIAQEIRRIGEEYNAYYARR | < 1000 | –
PEIWIAQELGRNGDEFNAYYARR | > 10000 | –
PEIWIAQELQRDGDEYNAYYARR | > 10000 | –

Compound | Kd (Mcl-1 [1]; [5]) [nM] | further results
PEIWIAQELRRAGDVLNAYYARR | – | Kd (Mcl-1 [1]; [6]): < 1000 nM
PEIWIAQEVDRIGDEVNAYYARR | < 1000 | –
PEIWIAQGLRRIGDTWNAYYARR | – | Kd (Mcl-1 [1]; [6]): < 1000 nM
PEIWLAQYLRRLGDQINAYYARR | – | Kd (Mcl-1 [1]; [6]): < 1000 nM
PEIWMAQVLRRFGDLLNAYYARR | – | Kd (Mcl-1 [1]; [6]): < 1000 nM
PEIWVAQEFGRAGDEFNAYYARR | > 10000 | –
PEIWVAQEFGRNGDEFNAYYARR | > 10000 | –
PEIWVAQEFKRFGDEYNAYYARR | > 10000 | –
PEIWVAQEFKRYGDETNAYYARR | > 10000 | –
PEIWVAQEFQRAGDEYNAYYARR | > 10000 | –
PEIWVAQEFQRNGDEFNAYYARR | > 10000 | –
PEIWVAQEFRRAGDEFNAYYARR | > 10000 | –
PEIWVAQEIDRVGDEINAYYARR | < 1000 | –
PEIWVAQEIERIGDEVNAYYARR | < 1000 | –
RLAEVCAVLLRLGDELEMIRPSV (PGRLAEVCAVLLRLGDELEMIRPSVY) [Bok] | – | Kd (Mcl-1 [1]; [3]): < 1000 nM
WAREIGAQLRRMADDLNAQYERR (EQWAREIGAQLRRMADDLNAQYERRR) [Puma] | – | Kd (Mcl-1 [1]; [3]): < 1000 nM
WDR60 (GGRVKLVHSALIQLGDSLSHKGNEFW) | – | z-score 1.1 (Bcl-xL; [7]): 4.105; z-score 1.2 (Bcl-xL; [7]): 0.5337; z-score 2.1 (Bcl-xL; [7]): -0.08078; z-score 2.2 (Bcl-xL; [7]): 0.3897; z-score 1.2 (Mcl-1 [2]): 0.5442; z-score 2.1 (Mcl-1 [2]): 0.4209; z-score 2.2 (Mcl-1 [2]): 0.563
WRAP53 (RKDAELLCWDLRQSGYPLWSLGREVT) | – | z-score 1.1 (Bcl-xL; [8]): 0.8939; z-score 1.2 (Bcl-xL; [8]): -0.01936; z-score 2.1 (Bcl-xL; [8]): 1.1339; z-score 2.2 (Bcl-xL; [8]): 1.068; z-score 2.1 (Mcl-1 [2]): 1.332; z-score 2.2 (Mcl-1 [2]): 1.084
ZNF295 (ERLKGQLCDVLLIVGDQKFRAHKNVL) | – | z-score 1.1 (Bcl-xL; [8]): 0.6872; z-score 1.2 (Bcl-xL; [8]): -1.979; z-score 2.1 (Bcl-xL; [8]): 2.441; z-score 2.2 (Bcl-xL; [8]): -0.4135; z-score 1.2 (Mcl-1 [2]): 0.3792; z-score 2.1 (Mcl-1 [2]): -0.9697; z-score 2.2 (Mcl-1 [2]): 0.1208
